The results in this text go back to paper PMC5339802 (2017).

The target of experiment [1] is T1, FITC-labeled MyoVa-GTD (human, UniProt Q9Y4I1 1448-1855, fluorescein isothiocyanate (FITC) label, site not stated).
T1 chain: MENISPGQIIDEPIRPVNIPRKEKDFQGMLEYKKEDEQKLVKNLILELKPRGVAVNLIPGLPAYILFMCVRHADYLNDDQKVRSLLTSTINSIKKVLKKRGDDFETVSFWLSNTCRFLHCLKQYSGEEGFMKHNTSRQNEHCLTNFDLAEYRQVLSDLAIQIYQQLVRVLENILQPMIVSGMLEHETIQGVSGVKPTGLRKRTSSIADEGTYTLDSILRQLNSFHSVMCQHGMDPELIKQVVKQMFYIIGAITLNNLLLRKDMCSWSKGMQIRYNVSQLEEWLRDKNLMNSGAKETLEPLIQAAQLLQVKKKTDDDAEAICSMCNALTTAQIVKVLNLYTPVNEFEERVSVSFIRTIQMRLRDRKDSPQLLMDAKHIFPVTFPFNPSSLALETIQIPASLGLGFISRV
Nature of the experiment: MST; 300 nM FITC-labeled MyoVa-GTD, serial dilution of RPGRIP1L-C2 domains; 50 mM HEPES, 150 mM NaCl, 5% glycerol, 0.05% tween-20, pH 7.2; Monolith NT.115, LED power 20%, MST power 60%; triplicate.

Experiment [2] addresses T1, FITC-labeled MyoVa-GTD. Put plainly: MST.

As for RPGRIP1L-C2 domains, in the experiment with FITC-labeled MyoVa-GTD [1], the equilibrium dissociation constant (Kd) lay in the range of 3 to 9 µM.

B1: RPGRIP1L-C2MED domain, purified, GST removed (domain or fragment)
chain: STDSTDGNLNELHITIRCCNHLQSRASHLQPHPYVVYKFFDFADHDTAIIPSSNDPQFDDHMYFPVPMNMDLDRYLKSESLSFYVFDDSDTQENIYIGKVNVPLISLAHDRCISGIFELTDHQKHPAGTIHVILKWKFAYLPPSGSITTE
Consider B1, for which, in the experiment with FITC-labeled MyoVa-GTD [2], the Kd was found to be 8.9 µM.

B2: RPGRIP1L-C2_(CTERM) domain, purified, GST removed (domain or fragment)
chain: MQQGKDDVSLLSEGQLAEQSLASSEDETEITEDLEPEVEEDMSASDSDDCIIPGPISKNIKQPSEKIRIEIIALSLNDSQVTMDDTIQRLFVECRFYSLPAEETPVSLPKPKSGQWVYYNYSNVIYVDKENNKAKRDILKAILQKQEMPNRSLRFTVVSDPPEDEQDLECEDIGVAHVDLADMFQEGRDLIEQNIDVFDARADGEGIGKLRVTVEALHALQSVYKQYRDDLEA
B2 gave a dissociation constant Kd in the experiment with FITC-labeled MyoVa-GTD [2] of 3.8 µM.

B3: RPGRIP1L-C2_(NTERM) domain, purified, GST removed (domain or fragment)
chain: RIHKLEAQLKDIAYGTKQYKFKPEIMPDDSVDEFDETIHLERGENLFEIHINKVTFSSEVLQASGDKEPVTFCTYAFYDFELQTTPVVRGLHPEYNFTSQYLVHVNDLFLQYIQKNTITLEVHQAYSTEYETIAACQLKFHEILEKSGRIFCTASLIGTKGDIPNFGTVEYWFRLRV
In the experiment with FITC-labeled MyoVa-GTD [2], B3 returned a dissociation constant Kd of 2.8 µM.
